Here are results for seven molecules from patent US20230250191A1 (SHANGHAI JEMINCARE PHARMACEUTICAL, published 2023).

Experiment [1] addresses T1, cynomolgus monkey IgE CH3-CH4 (cynomolgus monkey).
T1 construct: domain: CH3-CH4; Custom protein; also called Biotin -cyno IgE CH3-CH4; Biotin-cyno IgE
The experiment in a line: BLI (Octet), method of Example 2, biotinylated cynomolgus IgE CH3-CH4. How it is done: Detection of samples on machine (Octet Data Acquisition 11.1.0.11): First, samples were added to a 96-well plate (Greiner bio-one, 655209) with 200 µL/well according to the following table. The software parameters were then set, the plate temperature was set at 30° C., and the frequency of standard kinetic signals was collected at 5.0 Hz. Next, the CH1 sensor (Fortébio, 18-0039) with 1xPBST was pre-wet for 10 minutes, and then tested on the machine. Each cycle includes the following steps: 1) immersing in buffer for 60 s; 2) detecting whether the antigen non-specifically binds to the sensor; 3) regenerating with glycine solution at 10 mM pH 1.7; 4) immersing in buffer for 60 s; 5) immobilizating the antibody on the sensor for 30 s; 6) immersing the sensor in the buffer for 180 s; 7) Association of the antigen- antibody for 180 s; 8) dissociation of the antigen-antibody for 10 min; 9) regenerating the sensor.
On the technique in general: BLI is a label-free optical method that tracks binding on a fibre tip over time.

The target of the next experiment is T2, human FcRn (human, UniProt P55899 24-297; P61769 21-119).
T2 construct: Bought protein; also called hFcRn
The experiment in a line: BLI (Octet RED96e), pH 6.0, FcRn captured through biotin-conjugated anti-His antibody, antibody 31.3-1000 nM. How it is done: (§1) The affinity of the antibody to human FcRn (Acro, FCN-H52W7) and cynomolgus monkey FcRn (Acro, FCM-C52W9) was determined according to the method of Example 2 using Octet RED96e (Fortebio). Wherein, human FcRn and cynomolgus FcRn were diluted to 5 µg/mL with 1xPBS (10 mM Na2HPO4.12H2O, 2 mM KH2PO4, 137 mM NaCl, 2.7 mM KCl, pH 6.0), respectively, and biotin-conjugated THETM His-tagged mouse monoclonal antibody was diluted to 2 µg/mL; the antibody to be tested was diluted with 1x PBST (1xPBS, 0.02% Tween 20, pH6.0), and the antibody dilution concentration ranged from 1000 nM - 31.3 nM.

For another experiment, the target named is T3, cynomolgus monkey FcRn (cynomolgus monkey, UniProt Q8SPV9 24-297; Q8SPW0 21-119).
T3 construct: Bought protein; also called Cynomolgus FcRn; cynomolgus FcRn
The description is as above. How it is done: as §1

One may read the Kd as a measure of binding affinity in units of concentration. The koff is a measure of how fast the partners let go of each other. Usually kon stands for the second-order rate constant of association.

T2 sequence (P55899 24-297 limits assumed, chain 1 of 2): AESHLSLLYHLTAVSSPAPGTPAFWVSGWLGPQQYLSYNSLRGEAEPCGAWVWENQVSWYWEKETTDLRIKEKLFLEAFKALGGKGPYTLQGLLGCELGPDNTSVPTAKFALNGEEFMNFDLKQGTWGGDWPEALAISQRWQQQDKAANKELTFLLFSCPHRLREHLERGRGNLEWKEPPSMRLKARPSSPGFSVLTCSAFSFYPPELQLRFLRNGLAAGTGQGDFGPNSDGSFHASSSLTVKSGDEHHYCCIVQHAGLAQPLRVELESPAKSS
T2 sequence (P61769 21-119 limits assumed, chain 2 of 2): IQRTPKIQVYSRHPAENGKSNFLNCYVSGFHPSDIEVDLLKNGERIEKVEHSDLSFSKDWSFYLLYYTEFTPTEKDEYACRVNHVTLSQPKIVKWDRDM
T3 sequence (Q8SPV9 24-297 limits assumed, chain 1 of 2): as the sequence (P55899 24-297 limits assumed, chain 1 of 2) above, with N39D, E44Q, G99S, S189G, S190N, L217M, S269T counted along it
T3 sequence (Q8SPW0 21-119 limits assumed, chain 2 of 2): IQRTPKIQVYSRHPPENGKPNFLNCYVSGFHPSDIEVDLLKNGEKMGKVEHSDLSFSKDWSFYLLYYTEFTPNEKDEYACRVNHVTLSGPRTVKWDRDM

B1: AB1904Am2 (antibody, V domains shown)
VH: EVQLVESGGGLVQPGGSLRLSCAVSGYSIRSGYSWNWVRQAPGKGLEWVSVITYAGSTNYADSVKGRFTISRDDSKNTFYLQMNSLRAEDTAVYYCARGSHYFGHWHFAVWGQGTLVTVSS
VL: DIQLTQSPSSLSASVGDRVTITCRASQSVADEWDSYMNWYQQKPGKAPKLLIYAASYLQSGVPSRFSGSGSGTDFTLTISSLQPEDFATYYCQQSHEDPYTFGQGTKLEIK
notes: IgG1 format
As to B1, in experiment [1], the Kd came out at 0.11 nM, the koff came to 0.000222 s⁻¹ and the kon is 2.06e+06 M⁻¹ s⁻¹.

B2: AB1904Am11 (antibody, V domains shown)
VH: EVQLVESGGGLVQPGGSLRLSCAVSGYSITSGYSWNWVRQAPGKGLEWVSVITYAGSTNYADSVKGRFTISRDDSKNTFYLQMNSLRAEDTAVYYCARGTHYFGHWHFAVWGQGTLVTVSS
VL: DIQLTQSPSSLSASVGDRVTITCRASQSVNDEADSYMNWYQQKPGKAPKLLIYAASYLQSGVPSRFSGSGSGTDFTLTISSLQPEDFATYYCQQSHEDPYTFGQGTKLEIK
notes: IgG1 format
Regarding B2, in experiment [1], the Kd worked out at 0.17 nM, the koff was 0.000248 s⁻¹ and the kon came to 1.5e+06 M⁻¹ s⁻¹.

B3: AB1904Am6 (antibody, V domains shown)
VH: EVQLVESGGGLVQPGGSLRLSCAVSGYSITSGYSWNWVRQAPGKGLEWVSVITYAGSTNYADSVKGRFTISRDDSKNTFYLQMNSLRAEDTAVYYCARGSNYFGHWHFAVWGQGTLVTVSS
VL: DIQLTQSPSSLSASVGDRVTITCRASQSVDSEGDSYMNWYQQKPGKAPKLLIYAASYLQSGVPSRFSGSGSGTDFTLTISSLQPEDFATYYCQQSHEDPYTFGQGTKLEIK
notes: IgG1 format
For the molecule B3, in experiment [1], the affinity, expressed as Kd, was 0.18 nM; the koff is 0.000308 s⁻¹; the kon worked out at 1.74e+06 M⁻¹ s⁻¹.

B4: AB1904Am5 (antibody, V domains shown)
VH: EVQLVESGGGLVQPGGSLRLSCAVSGYSITSGYSWNWVRQAPGKGLEWVSVITYAGSTNYADSVKGRFTISRDDSKNTFYLQMNSLRAEDTAVYYCARGSHYFGHWHFAVWGQGTLVTVSS
VL: DIQLTQSPSSLSASVGDRVTITCRASQSVDDEYDSYMNWYQQKPGKAPKLLIYAASYLQSGVPSRFSGSGSGTDFTLTISSLQPEDFATYYCQQSHEDPYTFGQGTKLEIK
notes: IgG1 format
In experiment [1], B4 gave a Kd of 0.15 nM, a dissociation rate constant (koff) of 0.000267 s⁻¹ and a kon of 1.77e+06 M⁻¹ s⁻¹.

B5: AB1904Am3 (antibody, V domains shown)
VH: EVQLVESGGGLVQPGGSLRLSCAVSGYSITSGYSWNWVRQAPGKGLEWVSVITYAGSTNYADSVKGRFTISRDDSKNTFYLQMNSLRAEDTAVYYCARGTHYFGHWHFAVWGQGTLVTVSS
VL: DIQLTQSPSSLSASVGDRVTITCRASQSVDAEGDSYMNWYQQKPGKAPKLLIYAASYLQSGVPSRFSGSGSGTDFTLTISSLQPEDFATYYCQQSHEDPYTFGQGTKLEIK
notes: IgG1 format
Turning to B5, in experiment [1], the affinity, expressed as Kd, was 0.16 nM; the off-rate constant (koff) came to 0.000272 s⁻¹; the kon amounted to 1.7e+06 M⁻¹ s⁻¹.

B6: AB1904Am10 (antibody)
VL: DIQLTQSPSSLSASVGDRVTITCRASQSVGDEADSYMNWYQQKPGKAPKLLIYAASYLQSGVPSRFSGSGSGTDFTLTISSLQPEDFATYYCQQSHEDPYTFGQGTKLEIKRTVAAPSVFIFPPSDEQLKSGTASVVCLLNNFYPREAKVQWKVDNALQSGNSQESVTEQDSKDSTYSLSSTLTLSKADYEKHKVYACEVTHQGLSSPVTKSFNRGEC
VH: not shown
notes: IgG1 format
In the experiment with human FcRn, B6 showed a Kd of 98.7 nM, a koff of 0.121 s⁻¹ and a kon of 1.22e+06 M⁻¹ s⁻¹. In the experiment with cynomolgus monkey FcRn, this molecule returned a Kd of 91.4 nM, an off-rate (koff) of 0.106 s⁻¹ and an on-rate constant (kon) of 1.16e+06 M⁻¹ s⁻¹.

B7: AB1904Am15 (antibody)
VL: DIQLTQSPSSLSASVGDRVTITCRASQSVGDEADSYMNWYQQKPGKAPKLLIYAASYLQSGVPSRFSGSGSGTDFTLTISSLQPEDFATYYCQQSHEDPYTFGQGTKLEIKRTVAAPSVFIFPPSDEQLKSGTASVVCLLNNFYPREAKVQWKVDNALQSGNSQESVTEQDSKDSTYSLSSTLTLSKADYEKHKVYACEVTHQGLSSPVTKSFNRGEC
VH: EVQLVESGGGLVQPGGSLRLSCAVSGYSITSGYSWNWVRQAPGKGLEWVSVITYAGSTNYADSVKGRFTISRDDSKNTFYLQMNSLRAEDTAVYYCARGTHYFGHWHFAVWGQGTLVTVSSASTKGPSVFPLAPSSKSTSGGTAALGCLVKDYFPEPVTVSWNSGALTSGVHTFPAVLQSSGLYSLSSVVTVPSSSLGTQTYICNVNHKPSNTKVDKKVEPKSCDKTHTCPPCPAPELLGGPSVFLFPPKPKDTLYITREPEVTCVVVDVSHEDPEVKFNWYVDGVEVHNAKTKPREEQYNSTYRVVSVLTVLHQDWLNGKEYKCKVSNKALPAPIEKTISKAKGQPREPQVYTLPPSREEMTKNQVSLTCLVKGFYPSDIAVEWESNGQPENNYKTTPPVLDSDGSFFLYSKLTVDKSRWQQGNVFSCSVMHEALHNHYTQKSLSLSPGK
notes: Same variable regions as AB1904Am10
In the experiment with human FcRn, B7 showed a Kd of 32.8 nM, a koff of 0.0287 s⁻¹ and a kon of 875000 M⁻¹ s⁻¹. For the same molecule, in the experiment with cynomolgus monkey FcRn, the Kd came to 31.5 nM, the koff was 0.0291 s⁻¹ and the kon stood at 922000 M⁻¹ s⁻¹.
